According to patent US20230295295A1 (published 2023):
Positions count from the first letter of the chain named. Values joined by “and” are separate entries in the source; they are usually repeats but may differ in a detail not shown here. Equal values may be shown once.

Assays:
[1] = molecular target: T1, Human LAG-3 expressed on cells (human, UniProt P18627 23-525); assay: cell-based or functional assay
T1 sequence (looked up): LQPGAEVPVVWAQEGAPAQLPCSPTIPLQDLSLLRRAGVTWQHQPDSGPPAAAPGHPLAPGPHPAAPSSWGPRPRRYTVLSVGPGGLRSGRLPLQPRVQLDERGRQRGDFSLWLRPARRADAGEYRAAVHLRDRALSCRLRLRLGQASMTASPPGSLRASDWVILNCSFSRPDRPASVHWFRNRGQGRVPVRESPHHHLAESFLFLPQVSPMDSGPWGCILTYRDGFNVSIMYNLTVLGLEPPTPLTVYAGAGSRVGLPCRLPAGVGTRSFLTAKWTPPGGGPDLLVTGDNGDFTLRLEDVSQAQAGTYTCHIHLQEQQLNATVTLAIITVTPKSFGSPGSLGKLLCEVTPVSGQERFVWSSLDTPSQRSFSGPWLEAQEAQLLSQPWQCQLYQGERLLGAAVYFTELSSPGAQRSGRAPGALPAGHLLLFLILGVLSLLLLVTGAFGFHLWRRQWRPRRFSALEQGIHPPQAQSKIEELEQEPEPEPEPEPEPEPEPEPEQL

[2] = molecular target: T2, Recombinant human LAG-3 ECD-His6 (human, UniProt P18627 23-433); assay: SPR Biacore T100, Anova comparison of KD on LAG-3 ECD-His6
T2 construct: also called LAG-3-His; recombinant human LAG-3-His
T2 sequence: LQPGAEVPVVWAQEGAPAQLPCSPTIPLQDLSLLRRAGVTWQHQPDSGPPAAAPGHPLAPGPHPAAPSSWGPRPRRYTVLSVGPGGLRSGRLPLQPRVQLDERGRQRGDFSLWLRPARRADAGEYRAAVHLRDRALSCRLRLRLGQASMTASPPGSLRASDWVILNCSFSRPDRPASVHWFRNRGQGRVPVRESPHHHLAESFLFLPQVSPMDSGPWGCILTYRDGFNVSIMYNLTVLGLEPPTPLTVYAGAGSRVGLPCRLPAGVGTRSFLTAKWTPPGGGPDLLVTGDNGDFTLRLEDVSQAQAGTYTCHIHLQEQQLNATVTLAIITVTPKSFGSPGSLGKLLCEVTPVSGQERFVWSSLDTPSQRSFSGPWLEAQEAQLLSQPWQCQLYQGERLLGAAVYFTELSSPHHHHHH
Experimental: (§1) Wild type fucosylated and afucosylated antibodies were compared for their ability to bind to recombinant human LAG-3 ECD with a C-terminal His6 (SEQ ID NO:51) using the Biacore® T100 (GE Healthcare®). Protein A was immobilised on a CM5 chip by primary amine coupling. This surface was then used to capture the humanised antibodies. Recombinant human LAG-3 ECD-His6 was then passed over the captured antibodies at 32, 8, 2, 0.5 and 0.125 nM and regeneration was carried out using 50 mM NaOH. The binding curves were double referenced with buffer injection (i.e. 0 nM) and the data was fitted to the T100 analysis software using the 1:1 model. The run was carried out at 25° C., using HBS-EP as the running buffer.
(§2) In order to investigate the statistical significance of this kinetic data, this experiment was repeated 3 times with the same batch of the four antibodies and the chimeric control. KD, ka and kd parameters were each log (base 10) transformed prior to separate statistical analyses. For each parameter, a mixed model analysis of variance (‘Anova’) was performed on transformed data, including terms for Run (random block effect) and Antibody.
(§3) From the Anova, geometric means were predicted for each antibody, along with statistically plausible ranges (95% confidence intervals) for each mean. Planned comparisons of antibodies were performed within the Anova. […]

[3] = molecular target: T2, Recombinant human LAG-3 ECD-His6; assay: SPR Biacore T100, Anova comparison of kd on LAG-3 ECD-His6
Experimental: as §1, §2, §3

[4] = molecular target: T3, Recombinant cynomolgus macaque LAG-3 ECD-His6 (cynomolgus macaque, UniProt P18627 24-433 (human entry)); assay: SPR Biacore T100, antibody captured on protein A, LAG-3 ECD-His6 analyte, 37 C, 1:1 model
T3 construct: made in house; also called cyno LAG-3
T3 chain: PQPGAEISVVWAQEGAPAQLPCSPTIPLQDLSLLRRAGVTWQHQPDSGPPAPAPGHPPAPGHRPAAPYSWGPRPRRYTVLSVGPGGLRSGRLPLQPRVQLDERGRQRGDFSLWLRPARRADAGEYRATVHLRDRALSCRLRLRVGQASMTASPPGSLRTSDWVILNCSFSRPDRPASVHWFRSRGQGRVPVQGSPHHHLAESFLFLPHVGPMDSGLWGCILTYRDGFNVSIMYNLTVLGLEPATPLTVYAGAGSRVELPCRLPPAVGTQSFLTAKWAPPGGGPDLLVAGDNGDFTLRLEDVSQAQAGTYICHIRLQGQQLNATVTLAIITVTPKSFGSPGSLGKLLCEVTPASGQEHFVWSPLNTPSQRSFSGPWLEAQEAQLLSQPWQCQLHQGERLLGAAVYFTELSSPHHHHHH
Experimental: (§4) The binding cross reactivity of anti-LAG-3 humanised antibodies for both cynomolgus macaque (cyno) and baboon recombinant LAG-3 ECD-His6 (SEQ ID NOs 52 and 53, respectively) was assessed using the Biacore® T100 (GE Healthcare®).
(§5) Protein A was immobilised on a CM5 chip by primary amine coupling. This surface was then used to capture the humanised antibodies. In-house generated recombinant cynomolgus macaque and baboon LAG-3 ECD-His6 were then passed over the captured antibodies and regeneration was carried out using 50 mM NaOH. LAG-3 ECD-His6 was passed over at 16, 4, 1, 0.25 and 0.0625 nM. The binding curves were double referenced with buffer injection (i.e. 0 nM) and the data was fitted to the T100 analysis software using the 1:1 model. The run was carried out at 37° C. using HBS-EP as the running buffer.

[5] = molecular target: T4, Recombinant baboon LAG-3 ECD-His6 (baboon, UniProt P18627 24-433 (human entry)); assay: as above
T4 construct: made in house
T4 chain: T3 chain with R188Q, G193E, A243T, A288V, D293N, H357R
Experimental: as §4, §5

[6] = molecular target: T2, Recombinant human LAG-3 ECD-His6; assay: SPR Biacore T100, antibody captured on protein A, LAG-3 ECD-His6 analyte, 25 C, 1:1 model, geometric mean of 3 runs
Experimental: as §1, §2, §3

EC50, depletion of antigen specific CD4 T cells by ADCC (primary human T cells, autologous NK cells) [1]: 14 pg/mL and 3.4 ng/mL
EC50, depletion of antigen specific LAG-3 positive CD8 T cells by ADCC [1]: 0.122 ng/mL and 17.5 ng/mL
KD ratio (H5L7BW against H5L7) [2]: 1.05
kd ratio (H5L7BW against H5L7) [3]: 1.12
Kd [4]: 0.021 nM
Kd [5]: 0.024 nM
koff [6]: 0.00441 s⁻¹
B1: H5L7BW (antibody, human IgG1, kappa, V domains shown)
VH: QVQLQESGPGLVKPSETLSLTCTVSGFSLTAYGVNWIRQPPGKGLEWIGMIWDDGSTDYDSALKSRVTISVDTSKNQFSLKLSSVTAADTAVYYCAREGDVAFDYWGQGTLVTVSS
VL: DIQMTQSPSSLSASVGDRVTITCKSSQSLLNPSNQKNYLAWYQQKPGKAPKLLVYFASTRDSGVPSRFSGSGSGTDFTLTISSLQPEDFATYYCLQHFGTPPTFGQGTKLEIKR
notes: Afucosylated form of H5L7: plasmids encoding H5L7 expressed in the BioWa Potelligent (FUT8 knock-out CHO) cell line; also called afucosylated H5L7BW
